{"source": "paper PMC5247666", "about": "“The Production and Utilization of GDP-glucose in the Biosynthesis of Trehalose 6-Phosphate by Streptomyces venezuelae*” (The Journal of Biological Chemistry, 2016)", "key": {"[1]": {"target": "T1, SVEN_3027 (Streptomyces venezuelae, UniProt F2R7M8)", "T1 construct": "synthetic gene, E. coli BL21(DE3)pLysS", "T1 sequence (F2R7M8 entry or part of it)": "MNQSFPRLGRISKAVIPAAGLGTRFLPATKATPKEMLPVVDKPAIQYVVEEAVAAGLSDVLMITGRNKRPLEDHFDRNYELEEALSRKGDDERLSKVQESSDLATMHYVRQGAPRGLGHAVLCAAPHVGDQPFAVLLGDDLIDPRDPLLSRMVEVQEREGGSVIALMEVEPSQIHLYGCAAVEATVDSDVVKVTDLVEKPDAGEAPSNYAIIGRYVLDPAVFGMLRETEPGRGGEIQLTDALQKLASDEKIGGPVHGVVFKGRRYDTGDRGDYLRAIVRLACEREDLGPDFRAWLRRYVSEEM", "test": "stopped coupled assay of pyrophosphate (inorganic pyrophosphatase, malachite green)", "format": "biochemical", "conditions": "glucose 1-phosphate as co-substrate"}, "[2]": {"target": "Streptomyces venezuelae OtsA (trehalose-6-phosphate synthase) (Streptomyces venezuelae)", "test": "SEC; Superdex 200 10/300 GL calibrated with size standards; 20 mM HEPES pH 7.0, 10 mM MgCl2, 100 mM NaCl; size of the self-associated form"}, "[3]": {"substrate": "O=P(O)(O)O[C@H]1O[C@H](CO)[C@@H](O)[C@H](O)[C@@H]1O", "test": "stopped coupled assay of pyrophosphate (inorganic pyrophosphatase, malachite green)", "format": "biochemical, Streptomyces venezuelae", "conditions": "ITP 1 mM fixed", "description": "(§1) stopped coupled assay of pyrophosphate (inorganic pyrophosphatase, malachite green) on SVEN_3972"}, "[4]": {"substrate": "O=P(O)(O)O[C@H]1O[C@H](CO)[C@@H](O)[C@H](O)[C@H]1O", "test": "stopped coupled assay of pyrophosphate (inorganic pyrophosphatase, malachite green)", "format": "biochemical, Streptomyces venezuelae", "conditions": "GTP 2 mM fixed", "description": "as §1"}, "[5]": {"substrate": "O=P(O)(O)OP(=O)(O)OP(=O)(O)OC[C@H]1O[C@@H](n2cnc3c(O)ncnc32)[C@H](O)[C@@H]1O", "test": "stopped coupled assay of pyrophosphate (inorganic pyrophosphatase, malachite green)", "format": "biochemical, Streptomyces venezuelae", "conditions": "mannose 1-phosphate 2 mM fixed", "description": "as §1"}, "[6]": {"substrate": "Nc1nc2c(ncn2[C@@H]2O[C@H](COP(=O)(O)OP(=O)(O)OP(=O)(O)O)[C@@H](O)[C@H]2O)c(=O)[nH]1", "test": "stopped coupled assay of pyrophosphate (inorganic pyrophosphatase, malachite green)", "format": "biochemical, Streptomyces venezuelae", "conditions": "mannose 1-phosphate 2 mM fixed", "description": "as §1"}, "[7]": {"target": "the molecule itself", "test": "SEC; Superdex 200 16/600; 50 mM MOPS pH 8.0, 0.025 mM EDTA, 5% (w/v) sucrose; size of the self-associated form"}, "[8]": {"substrate": "O=P(O)(O)O[C@H]1O[C@H](CO)[C@@H](O)[C@H](O)[C@@H]1O", "test": "stopped coupled assay of pyrophosphate (inorganic pyrophosphatase, malachite green)", "format": "biochemical, Streptomyces venezuelae", "conditions": "GTP 0.3 mM fixed", "description": "(§2) stopped coupled assay of pyrophosphate (inorganic pyrophosphatase, malachite green) on SVEN_2781"}, "[9]": {"substrate": "O=P(O)(O)O[C@H]1O[C@H](CO)[C@@H](O)[C@H](O)[C@H]1O", "test": "stopped coupled assay of pyrophosphate (inorganic pyrophosphatase, malachite green)", "format": "biochemical, Streptomyces venezuelae", "conditions": "GTP 0.3 mM fixed", "description": "as §2"}, "[10]": {"substrate": "Nc1nc2c(ncn2[C@@H]2O[C@H](COP(=O)(O)OP(=O)(O)OP(=O)(O)O)[C@@H](O)[C@H]2O)c(=O)[nH]1", "test": "stopped coupled assay of pyrophosphate (inorganic pyrophosphatase, malachite green)", "format": "biochemical, Streptomyces venezuelae", "conditions": "glucose 1-phosphate 1 mM fixed", "description": "as §2"}, "[11]": {"substrate": "Nc1ncnc2c1ncn2[C@@H]1O[C@H](COP(=O)(O)OP(=O)(O)O[C@H]2O[C@H](CO)[C@@H](O)[C@H](O)[C@H]2O)[C@@H](O)[C@H]1O", "test": "continuous coupled assay of NDP release (pyruvate kinase/lactate dehydrogenase)", "format": "biochemical, Streptomyces venezuelae", "conditions": "glucose 6-phosphate 5 mM fixed", "description": "(§3) continuous coupled assay of NDP release (pyruvate kinase/lactate dehydrogenase) on S. venezuelae OtsA"}, "[12]": {"substrate": "Nc1nc2c(ncn2[C@@H]2O[C@H](COP(=O)(O)OP(=O)(O)O[C@H]3O[C@H](CO)[C@@H](O)[C@H](O)[C@H]3O)[C@@H](O)[C@H]2O)c(=O)[nH]1", "test": "continuous coupled assay of NDP release (pyruvate kinase/lactate dehydrogenase)", "format": "biochemical, Streptomyces venezuelae", "conditions": "glucose 6-phosphate 5 mM fixed", "description": "as §3"}}, "data": [{"molecule": "O=c1ccn([C@@H]2O[C@H](COP(=O)(O)OP(=O)(O)OP(=O)(O)O)[C@@H](O)[C@H]2O)c(=O)[nH]1", "note": "[UTP]", "values": [{"measurement": "stopped coupled assay of pyrophosphate (inorganic pyrophosphatase, malachite gre)", "setting": "[1]", "result": "donor substrate preference was UTP > dTTP ≫ CTP > GTP > ATP > ITP"}]}, {"molecule": "Cc1cn([C@H]2C[C@H](O)[C@@H](COP(=O)(O)OP(=O)(O)OP(=O)(O)O)O2)c(=O)[nH]c1=O", "note": "[dTTP]", "values": [{"measurement": "stopped coupled assay of pyrophosphate (inorganic pyrophosphatase, malachite gre)", "setting": "[1]", "result": "donor substrate preference was UTP > dTTP ≫ CTP > GTP > ATP > ITP"}]}, {"molecule": "Streptomyces venezuelae OtsA (trehalose-6-phosphate synthase) (enzyme)", "values": [{"measurement": "stoichiometry N", "setting": "[2]", "result": 2}]}, {"molecule": "Streptomyces venezuelae SVEN_3972 (ITP-mannose pyrophosphorylase) (enzyme, UniProt F2RFV6 1-238, looked up, The His6 tag can be cleaved by TEV protease; also called SVEN15_3882) MHTSPTQAVVLAGGQGSRLRPYTDDRPKPMVEIPGTGTPIIGHQLSWLAAEGVTDAVVSCGHLAEVLQEWLEGADLPLKVTTVVETEPLGRGGGLKYAAAHLPAPDQPWYATNGDIWTRFSLREMAAFHDERDALATLALARPRIPWGAVETDTFGHITDFIEAPPSPFLINAGVYVFSAAFTELLPDLGDHERTTFPRLARERRLAGFPLPQGAYWRAIDTAKDLTEAAKELAAQRG", "values": [{"measurement": "Km", "setting": "[3]", "result": "0.86 ± 0.08", "unit": "mM"}, {"measurement": "kcat", "setting": "[3]", "result": "0.0119 ± 0.0004", "unit": "s⁻¹"}, {"measurement": "kcat/Km", "setting": "[3]", "result": "14 ± 1", "unit": "M⁻¹ s⁻¹"}, {"measurement": "Km", "setting": "[4]", "result": "7.1 ± 0.8", "unit": "mM"}, {"measurement": "kcat", "setting": "[4]", "result": "0.014 ± 0.001", "unit": "s⁻¹"}, {"measurement": "kcat/Km", "setting": "[4]", "result": "2 ± 0.3", "unit": "M⁻¹ s⁻¹"}, {"measurement": "Km", "setting": "[5]", "result": "0.17 ± 0.02", "unit": "mM"}, {"measurement": "kcat", "setting": "[5]", "result": "0.049 ± 0.001", "unit": "s⁻¹"}, {"measurement": "kcat/Km", "setting": "[5]", "result": "300 ± 30", "unit": "M⁻¹ s⁻¹"}, {"measurement": "Km", "setting": "[6]", "result": "0.47 ± 0.03", "unit": "mM"}, {"measurement": "kcat", "setting": "[6]", "result": "0.0156 ± 0.0004", "unit": "s⁻¹"}, {"measurement": "kcat/Km", "setting": "[6]", "result": "33 ± 2", "unit": "M⁻¹ s⁻¹"}, {"measurement": "stoichiometry N", "setting": "[7]", "result": 2}]}, {"molecule": "SVEN_2781 (Streptomyces venezuelae ATCC 10712) (protein, synthetic gene, E. coli BL21(DE3); active form dimer) MTEAILLVGGKGTRLRPLTVNTPKPMVPAAGVPFLTHQLARARAAGVEHIVLATSYLAEVFEPHFGDGSSLGLSLEYVTEEEPLGTGGAIRNVASRLHSGPDDPVLIFNGDILTGLDIQALVATHSSSGADVSLHLTRVEDPRAFGLVPTDATGRVTAFLEKPQTPEEIVTDQINAGAYVFRRSVIDTIPAGRPVSVERETFPDLLASGAHLQGMVDSTYWLDLGTPQAFVRGSADLVLGRAPSPAVPGRCGDRLVLPSARVAPDAKLTGGTVVGADAVVGDGARITGSTLLAGAVVEPGAVITDSLIGAGARIGARSVLTGAVIGDGAQVGPDNELRDGVRVWCDATLPAGAVRFSSDQ", "values": [{"measurement": "Km", "setting": "[8]", "result": "2.7 ± 0.3", "unit": "mM"}, {"measurement": "kcat", "setting": "[8]", "result": "0.167 ± 0.008", "unit": "s⁻¹"}, {"measurement": "kcat/Km", "setting": "[8]", "result": "60 ± 10", "unit": "M⁻¹ s⁻¹"}, {"measurement": "Km", "setting": "[9]", "result": "1.4 ± 0.1", "unit": "mM"}, {"measurement": "kcat", "setting": "[9]", "result": "0.171 ± 0.004", "unit": "s⁻¹"}, {"measurement": "kcat/Km", "setting": "[9]", "result": "120 ± 10", "unit": "M⁻¹ s⁻¹"}, {"measurement": "Km", "setting": "[10]", "result": "0.26 ± 0.02", "unit": "mM"}, {"measurement": "kcat", "setting": "[10]", "result": "0.159 ± 0.002", "unit": "s⁻¹"}, {"measurement": "kcat/Km", "setting": "[10]", "result": "610 ± 40", "unit": "M⁻¹ s⁻¹"}]}, {"molecule": "S. venezuelae OtsA (Streptomyces venezuelae ATCC 10712) (protein, synthetic gene, E. coli SoluBL21; 51 kDa with tag; homodimer (109 kDa by SEC)) MASVLVASNRGPVSYVRGEDGELDARRGGGGLVSGLSAVSSQDSLWVCAALGEGDREAVRRGIGEPGVRMLDIAPDVYADAYNGIANSVLWFLHHHLYDIPREPVFDAAFRHRWEAYRAYNRAFAEALAAAADEGAAVLVQDYHLALVPGQLRELRPDLRIGHFTHTPWASPEYFRMLPADIGDELLRGMLGADELGFHTSAWASAFLSCAGGEQPRTRVRVHPLGVDAEELRALAHRPQVDERLARLREEVGDRKTIVRVDRTELSKNILRGLLAYRELLTVHPEWRDRVVHLASAYPSRQDLAAYRAYTASVTELAAEINAEFGTADWQPVLVSVEDDFTRSLAAYRLADVALVNPVRDGMNLVAKEIPVVSDAGCALVLSTGAGAYEELKEDALTVHPYDVSETAEALHTALTMPPPERADRTKRLASAATALPPQRWFLNQLEGLSDA", "values": [{"measurement": "Km", "setting": "[11]", "result": "0.44 ± 0.05", "unit": "mM"}, {"measurement": "kcat", "setting": "[11]", "result": "29 ± 1", "unit": "s⁻¹"}, {"measurement": "kcat/Km", "setting": "[11]", "result": "67000 ± 7000", "unit": "M⁻¹ s⁻¹"}, {"measurement": "Km", "setting": "[12]", "result": "0.12 ± 0.02", "unit": "mM"}, {"measurement": "kcat", "setting": "[12]", "result": "139 ± 8", "unit": "s⁻¹"}, {"measurement": "kcat/Km", "setting": "[12]", "result": "1.14e+06 ± 223000", "unit": "M⁻¹ s⁻¹"}]}]}
